{
  "source": "patent US6977154",
  "about": "“Nucleic acid binding proteins” (Gendaq Limited)",
  "binders": {"B1": {"name": "HAE(M) G-GGMC-GGCG (dsDNA)", "DNA 1": "TATAGTGGGCCGGCGTGTCACAGTCAGTCCACACACGTC", "DNA 2": "GACGTGTGTGGACTGACTGTGACACGCCGGCCCACTATA", "modifications": "5mC at M (G-GGMC-GGCG), both strands [10 (5mC)]"}, "B2": {"name": "HHA(M) G-GMGC-GGCG (dsDNA)", "DNA 1": "TATAGTGGCGCGGCGTGTCACAGTCAGTCCACACACGTC", "DNA 2": "GACGTGTGTGGACTGACTGTGACACGCCGCGCCACTATA", "modifications": "5mC at M (G-GMGC-GGCG), both strands [5mC at 9 (top strand); bottom-strand 5mC opposite G10]"}, "B3": {"name": "HAE(T) G-GGTC-GGCG (dsDNA)", "DNA 1": "TATAGTGGGTCGGCGTGTCACAGTCAGTCCACACACGTC", "DNA 2": "GACGTGTGTGGACTGACTGTGACACGCCGACCCACTATA"}},
  "assay_in_all_cases": "phage ELISA, apparent Kd; PBS, 50 uM ZnCl2, 20 C",
  "conditions_in_all_cases": "protein: virion; tags: phage fd pIII fusion (Fd-Tet-SN), Zif268 framework; label: 5' biotin",
  "key": {"zfHAE(Y)": {"biological_target": "zfHAE(Y)", "procedure": "(§1) Binding sites are synthesised as described above, including biotinylated sites where 5-meC (M) is replaced by a C or T (with appropriate bases in the complementary strand). Two-fold dilutions of DNA are added to separate wells of a streptavidin-coated microtitre plate (Boehringer Mannheim) in 50 µl PBS containing 50 µM ZnCl_2 (PBS/Zn). Phage solution (bacterial culture supernatant diluted 1:10 in PBS/Zn containing 2% (w/v) fat-free dried milk (Marvel), 1% (v/v) Tween and 20 µg/ml sonicated salmon sperm DNA) are applied to each well (50 µl/well). Binding is allowed to proceed for one hour at 20° C. Unbound phage are removed by washing 6 times with PBS/Zn containing 1% (v/v) Tween, then 3 times with PBS/Zn. Bound phage are detected by ELISA using horseradish peroxidase-conjugated anti-M13 IgG (Pharmacia Biotech) and the colourimetric signal quantitated using SOFTMAX 2.32 (Molecular Devices).\n(§2) Zinc finger phage binding for each of the above clones is titrated against different amounts of methylated and unmethylated DNA oligos to derive values of the apparent dissociation constants (K_ds) for either DNA binding site (see FIGS. 4 and 5). The apparent Kd of each clone for the optimally bound DNA site(s) is in the nanomolar range, similar to that of wild-type Zif268 DNA-binding domain for its preferred target site using this assay. Clones zfHAE(M) (Table 1 F1: SEQ ID NO.:20; F2: SEQ ID NO.:25; F3: SEQ ID NO.:30) and zfHHA(M) (Table 1 F1: SEQ ID NO.:21; F2: SEQ ID NO.:26; F3: SEQ ID NO.:31) preferentially bind their respective DNA target sites when 5-meC is incorporated into the correct nucleotide positions, and discriminated against the unmethylated DNA sites by factors of approximately 20-fold and 5-fold, respectively."}, "zfHAE(M) [1]": {"biological_target": "zfHAE(M)", "procedure": "as §1, §2"}, "zfHHA(Y)": {"biological_target": "zfHHA(Y)", "procedure": "as §1, §2"}, "zfHHA(M)": {"biological_target": "zfHHA(M)", "procedure": "as §1, §2"}, "zfHAE(M) [2]": {"biological_target": "zfHAE(M)", "procedure": "as §1", "remark": "listed apart in the source"}},
  "data": [
    {"binder": "B1", "values": [
      {"measurement": "Kd", "setting": "zfHAE(Y)", "result": 6.3, "unit": "nM"},
      {"measurement": "Kd", "setting": "zfHAE(M) [1]", "result": 2, "unit": "nM"}
    ]},
    {"binder": "B2", "values": [
      {"measurement": "Kd", "setting": "zfHHA(Y)", "result": 14, "unit": "nM"},
      {"measurement": "Kd", "setting": "zfHHA(M)", "result": 14, "unit": "nM"}
    ]},
    {"binder": "B3", "values": [
      {"measurement": "Kd", "setting": "zfHAE(M) [2]", "result": 27, "unit": "nM"}
    ]}
  ]
}
